Results on 5 molecules are retold here after article PMC10917276, “A tick saliva serpin, IxsS17 inhibits host innate immune system proteases and enhances host colonization by Lyme disease agent” (PLOS Pathogens, 2024).

A word on the kon: it is the second-order rate constant of association.

Sequences and labels used below:
B1: blood clotting factor Xa (enzyme)
chain 1: ANSFLEEMKKGHLERECMEETCSYEEAREVFEDSDKTNEFWNKYKDGDQCETSPCQNQGKCKDGLGEYTCTCLEGFEGKNCELFTRKLCSLDNGDCDQFCHEEQNSVVCSCARGYTLADNGKACIPTGPYPCGKQTLER
chain 2: IVGGQECKDGECPWQALLINEENEGFCGGTILSEFYILTAAHCLYQAKRFKVRVGDRNTEQEEGGEAVHEVEVVIKHNRFTKETYDFDIAVLRLKTPITFRMNVAPACLPERDWAESTLMTQKTGIVSGFGRTHEKGRQSTRLKMLEVPYVDRNSCKLSSSFIITQNMFCAGYDTKQEDACQGDSGGPHVTRFKDTYFVTGIVSWGEGCARKGKYGIYTKVTAFLKWIDRSMKTRGLPKAKSHAPEVITSSPLK
B2: C-terminal hexa-histidine tagged recombinant Ixodes scapularis serpin 17 (rIxsS17) (natural protein)
chain: DDISQDKWKLARANNYLGLNLLKQLPSNDKTNVFFSPFSVSTAMGMAYAGARGDTLEQLTLNFGYAADELNEGKVLALFKEQLQSTNDLPHDYTLNIANAAVAQEGYGILPEYTDALTSSFGAEYIEADFQKRGQEAIQKINAWVSNRTHGKVQSLFDEPPDFSTRLILLNAIYYKGTWLYEFDKTKTKPRSFYNGGVEKVQVPMMRLKSTLNHTYNAILNADLVDLPYVGNDFSMTIILPREKTGLASLKSVLTSQTLNLALQNMYPKDMKLKLPKFKLDTKYTLKPTLEAMGITKIFSADADLSGISGSRNLYVSDVLHKAVLEVNEEGSEAAAVTGFVIQLRTAAFVTPPPLPKVYVDHPFIFLIRNSRTNTIMFLGEINAL
modifications: glycosylated (sites not given)
notes: Ixodes scapularis tick saliva serpin 17 (IxsS17), GenBank EEC18973.1; Codon-optimised synthetic gene in pPICZαA; also called C-terminal-His-rIxsS17; C-terminal His-tagged rIsS17; source: Pichia pastoris X33, secreted into medium, purified (ammonium sulfate, Hi-Trap Chelating HP); not shown: His6, C-terminal, kept
B3: rat skin trypsin IV (enzyme, UniProt P12788 24-247, looked up)
chain: IVGGYTCPKHLVPYQVSLHDGISHQCGGSLISDQWVLSAAHCYKRKLQVRLGEHNIHVLEGGEQFIDAEKIIRHPEYNKDTLDNDIMLIKLKSPAVLNSQVSTVSLPRSCASTDAQCLVSGWGNTVSIGGKYPALLQCLEAPVLSASSCKKSYPGQITSNMFCLGFLEGGKDSCDGDSGGPVVCNGEIQGIVSWGSVCAMRGKPGVYTKVCNYLSWIQETMANN
notes: rat trypsin IV, in house expressed; construct not described; also called rat trypsin IV; source: in house expressed

Assay [1] concerns the target bovine pancreatic trypsin (bovine). As to the kind of experiment: stoichiometry of inhibition from residual protease activity (substrate hydrolysis); molar ratios of His-tagged rIxsS17 to protease 0, 2.5, 5, 10, 20, 25, 50; 15 min at 37°C; bovine trypsin 1.5 nM, rat trypsin IV 2.0 nM or factor Xa 13.9 nM; linear regression extrapolated to zero activity.
Assay [2] has the same target. Description: discontinuous inhibition kinetics from residual protease activity (second-order rate constant); rIxsS17 50-1000 nM with bovine trypsin 14.6 nM, trypsin IV 12.5 nM or fXa 13.9 nM for 0-15 min at 37°C; kobs from semi-log plots, ka from the slope of kobs against rIxsS17 concentration.
Assay [3] has the same target.
Assay [4] addresses B2. As to the kind of experiment: discontinuous inhibition kinetics from residual protease activity (second-order rate constant); rIxsS17 50-1000 nM with bovine trypsin 14.6 nM, trypsin IV 12.5 nM or fXa 13.9 nM for 0-15 min at 37°C; kobs from semi-log plots, ka from the slope of kobs against rIxsS17 concentration. To be noted: both partners purified.
The target of assay [5] is B1. Description: stoichiometry of inhibition from residual protease activity (substrate hydrolysis); molar ratios of His-tagged rIxsS17 to protease 0, 2.5, 5, 10, 20, 25, 50; 15 min at 37°C; bovine trypsin 1.5 nM, rat trypsin IV 2.0 nM or factor Xa 13.9 nM; linear regression extrapolated to zero activity. To be noted: both partners purified.
Assay [6] concerns the target B3. Described as above. To be noted: both partners purified.

Consider “C-terminal hexa-histidine tagged recombinant Ixodes scapularis serpin 17 (rIxsS17) (from UniProt A0ACM8DKW3 71-455) (natural protein)”, for which the stoichiometry of inhibition (SI) in assay [1] was 12.9. The molecule also had a kon in assay [2] of 2700 M⁻¹ s⁻¹. Consider “N-terminal hexa-histidine tagged rIxsS17 with TEV site (natural protein)”, for which, in assay [3], the decrease in the inhibitory activity against trypsin of the N-terminal hexa-His construct (substrate hydrolysis assay) came out at 8.6%. B1: in assay [4], the kon stood at 540 M⁻¹ s⁻¹. Regarding B2, the “stoichiometry of inhibition (SI)” value is 68 in assay [5] and 10.5 in assay [6]. Consider B3, for which, in assay [4], the kon stood at 3900 M⁻¹ s⁻¹.
